No end group written: not given here. *: point of attachment. Biotin = O=C1N[C@H]2[C@H](CS[C@H]2CCCCC(=O)*)N1
How the values were obtained:
Aβ1-42 peptide = molecular target: T1, Aβ1-42 peptide (Homo sapiens, UniProt P05067); assay: Experiment of inhibition of amyloid β (Aβ1-42) fibrillogenesis, thioflavine T fluorescence; format: biochemical; details: peptide 1.65, 16.5, 33 nM added to 40 μM Aβ1-42 in 20 mM phosphate buffer pH 7.0; 0, 6, 24 hours; thioflavine T fluorescence 482 nm (FIG. 8)
T1 construct: the Aβ1-42 peptide diluted to 40 μM using 20 mM phosphate buffer
Protocol: Examples of a method for examining whether or not the obtained peptide has an activity of inhibiting amyloid β fibrillogenesis include the thioflavine T (ThT) method (H. Levine, III, Protein Science […]: 404-410 (1993)).
The synthesized peptide (TAT-B6-L1, B6-L1-TAT, TAT-B7-C15, or TAT-B7-S15) was added at varying concentrations (1.65 nM, 16.5 nM, and 33 nM) to the Aβ1-42 peptide diluted to 40 μM using 20 mM phosphate buffer, pH 7.0. At 0, 6, and 24 hours later, 10 μl of a sample was collected. After addition of 90 μl of 11 μM thioflavine T (Sigma)/phosphate buffer, fluorescence intensity at 482 nm generated by excitation light at 450 nm was measured using a multilabel plate counter Wallac 1420 ARVO sx (Perkin-Elmer; Wellesley, Mass.).
Results of measuring an activity of inhibiting Aβ1-42 fibrillogenesis by fusion peptides of TAT and B6-L1, B7-C15, or B7-S15 are shown in FIG. 8. The experiment of inhibition of fibrillogenesis was conducted according to the procedures described in the experiment of inhibition of fibrillogenesis above.

B6 scFv = assay: ELISA: binding of B6 scFv to plate-coated synthesized TAT fusion peptide; design: species or system human; details: peptide coated 200 ng/well; B6 scFv at varying concentrations (FIG. 7)
Excerpt: The B6-L1, B7-C15, and B7-S15 sequences having the TAT sequence fused at the amino terminus are referred to as TAT-B6-L1, TAT-B7-C15, and TAT-B7-S15, respectively. The B6-L1 sequence having the TAT sequence fused at the carboxyl terminus is referred to as B6-L1-TAT. The TAT sequence is a peptide sequence having the function of passing through the blood-brain barrier (P. Jarver and Ulo Langel, The use of cell-penetrating peptides as a tool for gene regulation, DDT, 9: 395-402, 2004). These peptides were biotinylated at their amino termini. Binding of the peptides was quantified using avidin labeled with an enzyme.
(5) The fusion peptide of TAT and B6-L1 was recognized by B6 scFv (FIG. 7). An ELISA plate was coated with the synthesized peptide TAT-B6-L1 or B6-L1-TAT under conditions of 200 ng/well. After addition of B6 scFv at varying concentrations, its binding activity was studied. A control peptide used was an unrelated peptide (GSGGGSCGYWRSEWGLCG (SEQ ID NO: 34)). […] (6) Activity of Inhibiting Aβ1-42 Fibrillogenesis by Fusion Peptide of TAT and B6-L1, B7-C15, or B7-S15

[1] = molecular target: T2, Aβ oligomer or Aβ fibers (Aβ1-42) (Homo sapiens, UniProt P05067); assay: Experiment of precipitation of Aβ conformers (Aβ oligomer and Aβ fibers) by biotinylated peptide with streptavidin-magnet beads, Western blot; format: binding; details: Aβ1-42 40 μM, 1.5 hours after dissolution, peptide 1:1, supernatant vs pellet (FIG. 9)
T2 construct: the Aβ1-42 peptide diluted to 40 μM using 20 mM phosphate buffer
Protocol: Aβ1-42 was dissolved at a concentration of 40 μM in 20 mM phosphate buffer, pH 7.0. At 1.5 hours later, the solution was reacted at 37° C. for 1 hour by the addition of the TAT-B6-L1 or TAT-B7-C15 peptide adjusted to 40 μM at a ratio of 1:1 by liquid volume (final concentration: Aβ [20 μM]/synthesized peptide [20 μM]). After reaction, an aliquot thereof was sampled as a sample before immunoprecipitation (“Before precipitation”), and the remaining sample was reacted with M-280 streptavidin-magnet beads (Dynal Biotech, Oslo, Norway) adjusted to 20 μg/μl on ice for 1 hour at a ratio of 1:1 by liquid volume (final concentration: Aβ [10 μM]/synthesized peptide [10 μM]/beads [10 μg/μl]). After reaction, the beads were precipitated using a magnet to obtain “Supernatant”. To the precipitated beads, PBS was added in a liquid volume equal to the collected supernatant to obtain “Pellet”. Each obtained sample was electrophoresed and subjected to Western blot analysis using anti-Aβ antibodies.
Aβ1-42 was dissolved at a concentration of 40 μM in 20 mM phosphate buffer, pH 7.0. At 1.5 hours later, the biotinylated TAT-B6-L1 or TAT-B7-C15 peptide was added thereto, and the conjugates were precipitated using streptavidin-magnet beads. Bands derived from Aβ oligomer, Aβ fibers, etc., could be confirmed before precipitation. Aβ oligomer or Aβ fibers were not confirmed in the supernatant from precipitation using the TAT-B6-L1 or TAT-B7-C15 peptide but could be confirmed in the pellet.

T1 sequence (P05067 672-713 limits assumed): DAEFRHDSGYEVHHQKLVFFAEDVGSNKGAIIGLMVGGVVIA
T2 sequence (P05067 672-713 limits assumed): as above
B6 scFv, sequence (as listed by the source): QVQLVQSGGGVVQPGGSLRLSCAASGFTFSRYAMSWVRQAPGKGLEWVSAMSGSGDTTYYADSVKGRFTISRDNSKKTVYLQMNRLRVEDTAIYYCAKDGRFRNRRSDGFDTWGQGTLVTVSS
B6 scFv, sequence (as listed by the source): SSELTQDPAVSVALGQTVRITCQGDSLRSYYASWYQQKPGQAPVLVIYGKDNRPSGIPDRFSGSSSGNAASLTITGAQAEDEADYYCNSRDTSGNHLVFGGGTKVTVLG

Substance | activity of inhibiting Aβ1-42 fibrillogenesis (Aβ1-42 peptide) | binding of B6 scFv to the coated peptide (B6 scFv) | binding/precipitation of Aβ oligomer or Aβ fibers by the peptide [1]
B6-L1-TAT: B6-L1 sequence having the TAT sequence fused at the carboxyl terminus; SEQ ID NO: 25 (Biotin-GMLDIFAPIRHVYGRKKRRQRRR) | demonstrated to have the activity of inhibiting fibrillogenesis | Binding reaction dependent on the amount of B6 scFv was confirmed | –
GSGGGSCGYWRSEWGLCG [control peptide, reference compound] | exhibited no inhibiting activity | – | no confirmed precipitation reaction
TAT-B6-L1: B6-L1 sequence having the TAT sequence fused at the amino terminus; SEQ ID NO: 24 (Biotin-YGRKKRRQRRRGMLDIFAPIRHV) | demonstrated to have the activity of inhibiting fibrillogenesis | Binding reaction dependent on the amount of B6 scFv was confirmed | Aβ oligomer or Aβ fibers formed on 1.5 hours after dissolution of Aβ1-42 bind to the TAT-B6-L1 or TAT-B7-C15 peptide
TAT-B7-C15: B7-C15 sequence (glycine added to carboxyl terminus) having the TAT sequence fused at the amino terminus; SEQ ID NO: 26 (Biotin-YGRKKRRQRRRCYGTKPWMCG; cysteine pairing not given here) | demonstrated to have the activity of inhibiting fibrillogenesis | – | Aβ oligomer or Aβ fibers formed on 1.5 hours after dissolution of Aβ1-42 bind to the TAT-B6-L1 or TAT-B7-C15 peptide
TAT-B7-S15: B7-S15 sequence having the TAT sequence fused at the amino terminus; SEQ ID NO: 27 (Biotin-YGRKKRRQRRRSYGTKPWMSG) | demonstrated to have the activity of inhibiting fibrillogenesis | – | –

— patent US8697651B2, “Amyloid β fibrillogenesis-inhibiting peptide” (Kagoshima University, priority 2006, dated 2014)
